From publication PMC10636607 (Cell Reports, 2023)

B1: 5J8 Fab (WT) (Fab, V domains shown)
VH: EVQLVESGPGLVKPSDILSLTCAVSGYSISSNYYWGWIRQPPGKGLEWIGSIYHSGSTYYKPSLESRLGISVDTSKNQFSLKLSFVSAADTAVYYCARHVRSGYPDTAYYFDKWGQGTLVTVSS
VL: SYVLTQPPSVSVAPGETARISCGGNNIGTKVLHWYQQTPGQAPVLVVYDDSDRPSGIPERFSGSNSGNTATLTISRVEVGDEADYYCQVWDISTDQAVFGGGTKLTVL
notes: source: ExpiCHO cells, transiently co-transfected, purified (CaptureSelect CH1-XL)
B2: Fab234 (WT) (Fab, V domains shown)
VH: EVQLVESGGGLVKPGGSLRLSCAASGFNFSTHIMNWVRQAPGKGLEWVSSISSSGTYIYYADSMKGRFTISRDNPKNSLYLQMNSLRAEDTAVYYCARARGFIQFHYYMDVWGKGTTVAVSS
VL: SYVLTQPPSVSVAPGKTARITCGGNNIGSKSVHWHQQRPGQAPVLVVYDDKIRPSGIPERFSGSNSGNTATLIISRVEAGDEADYYCQVWHSSSDPVVFGGGTKLTVL

Columns and labels:
[1] = molecular target: biotinylated influenza hemagglutinin (HA) from H1N1 A/California/07/2009 (Influenza A virus A/California/07/2009 …, UniProt C3W5X2, strain, biotinylated); experiment: BLI; conditions: both partners purified
[2] = molecular target: T1, biotinylated C-terminal αTSR domain of P. falciparum circumsporozoite protein (P. falciparum, UniProt Q7K740); experiment: BLI; conditions: both partners purified
T1 construct: also called P. falciparum CSP
T1 sequence (Q7K740 310-375): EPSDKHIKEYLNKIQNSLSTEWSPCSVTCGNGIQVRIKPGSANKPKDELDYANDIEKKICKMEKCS

Binder	binding result [1]	binding result [2]
B1	binds	
B2		binds
